Source: patent CN107987163A (HANGZHOU SHANGJIAN BIOTECHNOLOGY CO LTD, dated 2018)

Experiments:
BSA (BOVOGEN) = BSA (BOVOGEN) (UniProt P02769 25-607); assay: ELISA, protein coated at 1μg/ml, goat anti-human IgG-HRP detection
[1] = target: T1, AXL-Fc (人AXL蛋白胞外段-人IgG1Fc段融合蛋白) (human, UniProt P30530 26-451); assay: ELISA, AXL-Fc coated at 1μg/ml, antibody titrated, goat anti-human IgG (Fab')2-HRP detection
T1 construct: extracellular domain; Expressed in CHO-K1 cells; also called 靶抗原AXL-Fc; 抗原AXL-Fc
T1 sequence (looked up): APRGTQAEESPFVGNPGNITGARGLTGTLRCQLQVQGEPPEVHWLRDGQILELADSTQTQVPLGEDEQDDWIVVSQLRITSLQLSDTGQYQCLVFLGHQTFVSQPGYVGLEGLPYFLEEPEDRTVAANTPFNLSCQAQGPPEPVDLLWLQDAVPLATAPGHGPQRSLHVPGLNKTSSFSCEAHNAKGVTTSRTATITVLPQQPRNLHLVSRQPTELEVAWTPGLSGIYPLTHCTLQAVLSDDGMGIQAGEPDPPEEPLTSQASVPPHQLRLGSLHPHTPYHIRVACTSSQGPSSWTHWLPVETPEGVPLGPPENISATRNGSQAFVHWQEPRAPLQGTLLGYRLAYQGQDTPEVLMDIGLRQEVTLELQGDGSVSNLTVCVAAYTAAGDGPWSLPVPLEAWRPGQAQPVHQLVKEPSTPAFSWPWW

[2] = target: T2, A549细胞表面AXL (AXL on the surface of A549 cells) (UniProt P30530 26-894, limits assumed); assay: flow cytometry on A549 cells, 9A diluted to 20μg/ml, PE mouse anti-human IgG detection
T2 construct: whole, on cells; also called 细胞表面抗原
T2 sequence (looked up): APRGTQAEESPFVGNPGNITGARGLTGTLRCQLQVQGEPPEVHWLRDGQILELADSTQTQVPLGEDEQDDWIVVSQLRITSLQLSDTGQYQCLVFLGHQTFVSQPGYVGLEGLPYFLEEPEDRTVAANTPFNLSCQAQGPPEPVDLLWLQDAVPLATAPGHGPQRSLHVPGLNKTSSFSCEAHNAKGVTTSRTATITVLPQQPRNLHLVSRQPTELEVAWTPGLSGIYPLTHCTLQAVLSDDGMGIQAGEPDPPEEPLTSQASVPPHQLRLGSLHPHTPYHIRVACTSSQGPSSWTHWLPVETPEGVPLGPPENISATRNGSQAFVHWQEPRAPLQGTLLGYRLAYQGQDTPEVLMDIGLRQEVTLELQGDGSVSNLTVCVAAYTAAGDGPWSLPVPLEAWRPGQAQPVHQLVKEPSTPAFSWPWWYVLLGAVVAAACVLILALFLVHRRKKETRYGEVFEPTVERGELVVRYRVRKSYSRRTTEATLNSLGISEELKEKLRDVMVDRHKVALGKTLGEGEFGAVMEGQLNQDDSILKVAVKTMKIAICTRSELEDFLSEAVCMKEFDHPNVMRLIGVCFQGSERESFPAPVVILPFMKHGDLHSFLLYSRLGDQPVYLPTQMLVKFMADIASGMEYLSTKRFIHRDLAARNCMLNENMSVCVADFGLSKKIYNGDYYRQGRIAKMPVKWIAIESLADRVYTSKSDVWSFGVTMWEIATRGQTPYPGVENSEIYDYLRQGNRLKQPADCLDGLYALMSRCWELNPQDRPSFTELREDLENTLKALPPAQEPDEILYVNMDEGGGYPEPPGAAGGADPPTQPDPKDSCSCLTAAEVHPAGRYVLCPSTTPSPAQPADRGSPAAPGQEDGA

BSA (BOVOGEN), sequence (P02769 25-607 limits assumed): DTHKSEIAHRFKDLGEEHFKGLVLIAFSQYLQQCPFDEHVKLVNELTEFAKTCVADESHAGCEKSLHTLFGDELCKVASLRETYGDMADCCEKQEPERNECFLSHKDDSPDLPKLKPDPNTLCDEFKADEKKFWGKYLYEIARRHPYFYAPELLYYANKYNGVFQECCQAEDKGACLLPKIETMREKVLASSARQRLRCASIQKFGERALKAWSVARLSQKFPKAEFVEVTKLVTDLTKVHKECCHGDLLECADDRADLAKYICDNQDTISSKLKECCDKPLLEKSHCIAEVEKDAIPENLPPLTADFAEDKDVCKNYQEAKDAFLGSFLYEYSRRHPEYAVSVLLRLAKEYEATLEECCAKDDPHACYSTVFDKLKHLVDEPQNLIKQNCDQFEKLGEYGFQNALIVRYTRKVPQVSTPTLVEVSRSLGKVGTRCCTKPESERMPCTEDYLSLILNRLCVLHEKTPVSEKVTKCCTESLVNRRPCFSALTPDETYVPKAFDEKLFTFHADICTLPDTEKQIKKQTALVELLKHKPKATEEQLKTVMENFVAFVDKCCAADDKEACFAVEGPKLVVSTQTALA

B1: 9A抗体 (full antibody 9A, anti-AXL monoclonal antibody) (antibody, human IgG1, kappa, V domains shown)
VH: QVQLVQSGAEVKKPGSSVKVSCKASGGTFSSYAISWVRQAPGQGLEWMGGIIPIFGTANYAQKFQGRATITADESTSTAYMELSSLRSEDTAVYYCARAYYDFWSGYEPWGQGTLVTVSS
VL: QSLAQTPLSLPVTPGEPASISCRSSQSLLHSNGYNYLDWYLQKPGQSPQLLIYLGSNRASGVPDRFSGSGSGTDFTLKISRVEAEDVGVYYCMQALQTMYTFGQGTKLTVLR
notes: also called 单克隆抗体9A; 全抗体
B1: no binding (BSA (BOVOGEN)); binds [1]; binds [2].
